Laboratory results: PMC10722681, “RGCC-mediated PLK1 activity drives breast cancer lung metastasis by phosphorylating AMPKα2 to activate oxidative phosphorylation and fatty acid oxidation” (Journal of Experimental & Clinical Cancer Research : CR, 2023)

Target: HA-PLK1 (human, UniProt P53350 1-603)
Assay: cell-based or functional assay

Sequence of HA-PLK1 (P53350 whole entry): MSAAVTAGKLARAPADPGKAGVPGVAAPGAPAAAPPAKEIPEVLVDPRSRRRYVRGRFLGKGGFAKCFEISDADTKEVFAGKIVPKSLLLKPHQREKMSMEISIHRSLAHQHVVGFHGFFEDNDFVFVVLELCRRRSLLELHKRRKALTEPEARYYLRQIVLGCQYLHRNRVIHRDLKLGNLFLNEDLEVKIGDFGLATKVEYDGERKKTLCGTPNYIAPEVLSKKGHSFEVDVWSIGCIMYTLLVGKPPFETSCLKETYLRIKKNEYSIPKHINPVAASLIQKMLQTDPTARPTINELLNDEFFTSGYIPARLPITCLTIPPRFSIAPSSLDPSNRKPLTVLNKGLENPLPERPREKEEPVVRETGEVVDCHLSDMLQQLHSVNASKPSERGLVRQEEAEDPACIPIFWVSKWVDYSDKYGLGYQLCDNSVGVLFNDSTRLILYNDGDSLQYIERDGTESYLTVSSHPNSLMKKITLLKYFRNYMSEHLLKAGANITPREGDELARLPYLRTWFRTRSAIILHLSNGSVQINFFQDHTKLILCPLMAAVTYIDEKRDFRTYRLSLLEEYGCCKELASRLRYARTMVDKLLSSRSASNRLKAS

in vitro PLK1 kinase activity (universal kinase activity kit, purified PLK1 with AMPKα2 and ATP); EC50 of RGCC for activation of PLK1: 0.0194 µM
B1: GST-RGCC (natural protein, UniProt Q9H4X1 1-137, looked up)
chain: MKPPAAQGSPAAAAAAAPALDSAAAEDLSDALCEFDAVLADFASPFHERHFHYEEHLERMKRRSSASVSDSSGFSDSESADSLYRNSFSFSDEKLNSPTDSTPALLSATVTPQKAKLGDTKELEAFIADLDKTLASM
